Experimental data: patent US20110038941A1

Biological target: CD20 cell surface antigen (human) (UniProt P11836)
Test: flow cytometry of FAM-ODN fluorescence on Raji cells

Sequence of UniProt P11836 (P11836 whole entry): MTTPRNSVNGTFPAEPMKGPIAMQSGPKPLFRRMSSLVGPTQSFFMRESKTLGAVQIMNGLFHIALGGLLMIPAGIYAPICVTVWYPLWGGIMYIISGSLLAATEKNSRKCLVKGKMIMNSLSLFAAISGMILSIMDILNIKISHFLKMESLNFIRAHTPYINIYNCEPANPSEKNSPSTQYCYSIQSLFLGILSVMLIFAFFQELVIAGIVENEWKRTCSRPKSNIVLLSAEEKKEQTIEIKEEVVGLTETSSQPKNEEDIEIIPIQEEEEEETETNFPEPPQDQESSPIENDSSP

- fold fluorescence intensity of FAM-ODN against FAM-ODN loaded LP and Her ILP: 10 fold
- fold fluorescence intensity of FAM-ODN against free FAM-ODN: 20 fold
Substance: Rituximab (anti-CD20 antibody) conjugated cationic immunoliposomes
